Starred links: 1 amine or outer side, 2 acyl side, 3 side chain; linkers in the order of their positions; H or OH if unused. Non-standard residues stand in square brackets, D forms with d. No end group written: not given here. *: point of attachment. Thr(Me) = O-methylthreonine, CO[C@H](C)[C@H](N[*:1])C(=O)[*:2]; Ala(piperidin-4-yl) = O=C([C@H](CC1CCN([*:3])CC1)N[*:1])[*:2]; Phe(4-NH2) = Nc1ccc(C[C@H](N)C(=O)O)cc1; Phe(4-F) = N[C@@H](Cc1ccc(F)cc1)C(=O)O; 1Nal = N[C@@H](Cc1cccc2ccccc12)C(=O)O; 2Nal = N[C@@H](Cc1ccc2ccccc2c1)C(=O)O; Arg(Me) = CNC(=N)NCCC[C@H](N)C(=O)O; Ala(cPr) = N[C@@H](CC1CC1)C(=O)O; Cha = N[C@@H](CC1CCCCC1)C(=O)O; 4Amb = NCc1ccc(C(=O)O)cc1; Nva = CCC[C@H](N)C(=O)O; 2Abz = Nc1ccccc1C(=O)O; Dap = NC[C@H](N)C(=O)O; Aib = CC(C)(N)C(=O)O; Bz = O=C(c1ccccc1)*
T1: human Y2 receptor (human, UniProt P49146 1-381)
T1 construct: whole, on cells; used as membrane fraction of hY2R/CHO cells; also called human NPY2R; hY2R
T1 sequence (looked up): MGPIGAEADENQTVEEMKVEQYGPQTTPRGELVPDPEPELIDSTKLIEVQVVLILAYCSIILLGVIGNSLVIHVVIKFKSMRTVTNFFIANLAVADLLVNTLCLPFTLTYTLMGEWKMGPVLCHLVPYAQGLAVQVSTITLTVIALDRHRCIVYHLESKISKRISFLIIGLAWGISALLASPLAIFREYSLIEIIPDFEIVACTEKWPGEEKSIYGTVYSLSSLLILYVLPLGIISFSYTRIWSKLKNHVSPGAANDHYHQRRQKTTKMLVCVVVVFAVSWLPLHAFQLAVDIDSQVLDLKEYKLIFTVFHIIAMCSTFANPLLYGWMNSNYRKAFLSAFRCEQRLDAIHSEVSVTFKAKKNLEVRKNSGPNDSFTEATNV


Tests used:
[1] = biological target: T1, human Y2 receptor; experiment: RBA: [125I]-PYY displacement, hY2R/CHO membranes
Method in brief: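 Bound radioligand was collected by filtration on PEI-treated GF/C filters, washed with Tris/MgCl₂/NaCl/CHAPS buffer pH 7.4, and counted by scintillation; IC₅₀ values were calculated.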

[2] = biological target: T1, human Y2 receptor; experiment: cell-based or functional assay

Row | Binder | IC50 Ratio (vs PYY(3-36)) [1] [ratio] | GBA EC50 Ratio (vs PYY(3-36)), [35S]GTPγS [2] [ratio]
1 | [4Amb]RAYINLI[Nva]RQRY-NH2 (N-terminus assumed; SMILES CCC[C@H](NC(=O)[C@@H](NC(=O)[C@H](CC(C)C)NC(=O)[C@H](CC(N)=O)NC(=O)[C@@H](NC(=O)[C@H](Cc1ccc(O)cc1)NC(=O)[C@H](C)NC(=O)[C@H](CCCNC(=N)N)NC(=O)c1ccc(CN)cc1)[C@@H](C)CC)[C@@H](C)CC)C(=O)N[C@@H](CCCNC(=N)N)C(=O)N[C@@H](CCC(N)=O)C(=O)N[C@@H](CCCNC(=N)N)C(=O)N[C@@H](Cc1ccc(O)cc1)C(N)=O, also called compound No. 61) [4-Aminomethylbenzoyl-[Ala26, Ile28,31, Nva32]-PYY(25-36)] | 29 | 17
2 | Bz-RH[Ala(piperidin-4-yl)]INWITRQR[Cha]-NH2 (also: Ala(4Pip) D or L form not assigned (later peak), Ala(4Pip) is any of D-form and L-form; also called compound No. 66) [Benzoyl-[Ala(4Pip)27, Ile28,31, Trp30, Cha36]-PYY(25-36)] | 4.8 | 2.9
3 | [4Amb]RAYIN[Phe(4-F)]ITRQRY-NH2 (N-terminus assumed; SMILES CC[C@H](C)[C@H](NC(=O)[C@H](Cc1ccc(O)cc1)NC(=O)[C@H](C)NC(=O)[C@H](CCCNC(=N)N)NC(=O)c1ccc(CN)cc1)C(=O)N[C@@H](CC(N)=O)C(=O)N[C@@H](Cc1ccc(F)cc1)C(=O)N[C@H](C(=O)N[C@H](C(=O)N[C@@H](CCCNC(=N)N)C(=O)N[C@@H](CCC(N)=O)C(=O)N[C@@H](CCCNC(=N)N)C(=O)N[C@@H](Cc1ccc(O)cc1)C(N)=O)[C@@H](C)O)[C@@H](C)CC, also called compound No. 58) [4-Aminomethylbenzoyl-[Ala26, Ile28,31, Phe(4F)30]-PYY(25-36)] | 4.1 | 2.9
4 | [4Amb]RA[Aib]INLITRQRY-NH2 (N-terminus assumed; SMILES CC[C@H](C)[C@H](NC(=O)[C@H](CC(C)C)NC(=O)[C@H](CC(N)=O)NC(=O)[C@@H](NC(=O)C(C)(C)NC(=O)[C@H](C)NC(=O)[C@H](CCCNC(=N)N)NC(=O)c1ccc(CN)cc1)[C@@H](C)CC)C(=O)N[C@H](C(=O)N[C@@H](CCCNC(=N)N)C(=O)N[C@@H](CCC(N)=O)C(=O)N[C@@H](CCCNC(=N)N)C(=O)N[C@@H](Cc1ccc(O)cc1)C(N)=O)[C@@H](C)O, also called compound No. 53) [4-Aminomethylbenzoyl-[Ala26, Aib27, Ile28,31]-PYY(25-36)] | 18 | 7.5
5 | Ac-YYASLRAYINLITRQRY-NH2 (also called compound No. 5) [Ac-[Ala26, Ile28,31]-PYY(20-36)] | 9.8 | 8.1
6 | [dA]SLRAYINLITRQ[Arg(Me)]Y-NH2 (N-terminus assumed; SMILES CC[C@H](C)[C@H](NC(=O)[C@H](Cc1ccc(O)cc1)NC(=O)[C@H](C)NC(=O)[C@H](CCCNC(=N)N)NC(=O)[C@H](CC(C)C)NC(=O)[C@H](CO)NC(=O)[C@@H](C)N)C(=O)N[C@@H](CC(N)=O)C(=O)N[C@@H](CC(C)C)C(=O)N[C@H](C(=O)N[C@H](C(=O)N[C@@H](CCCNC(=N)N)C(=O)N[C@@H](CCC(N)=O)C(=O)N[C@@H](CCCNC(=N)NC)C(=O)N[C@@H](Cc1ccc(O)cc1)C(N)=O)[C@@H](C)O)[C@@H](C)CC, also called compound No. 3) [[D-Ala22, Ala26, Ile28,31, Arg(Me)35]-PYY(22-36)] | 6 | 2.7
7 | Bz-RH[Dap]INWITRQR[Cha]-NH2 (SMILES CC[C@H](C)[C@H](NC(=O)[C@H](CN)NC(=O)[C@H](Cc1c[nH]cn1)NC(=O)[C@H](CCCNC(=N)N)NC(=O)c1ccccc1)C(=O)N[C@@H](CC(N)=O)C(=O)N[C@@H](Cc1c[nH]c2ccccc12)C(=O)N[C@H](C(=O)N[C@H](C(=O)N[C@@H](CCCNC(=N)N)C(=O)N[C@@H](CCC(N)=O)C(=O)N[C@@H](CCCNC(=N)N)C(=O)N[C@@H](CC1CCCCC1)C(N)=O)[C@@H](C)O)[C@@H](C)CC, also called compound No. 67) [Benzoyl-[Dap27, Ile28,31, Trp30, Cha36]-PYY(25-36)] | 34 | 22
8 | Bz-RAYINLI[Thr(Me)]RQRY-NH2 (also called compound No. 74) [4-Aminomethylbenzoyl-[Ala26, Ile28,31, Thr(Me)32]-PYY(25-36)] | 14 | 24
9 | [4Amb]R[Ala(cPr)]YINLITRQRY-NH2 (N-terminus assumed; SMILES CC[C@H](C)[C@H](NC(=O)[C@H](Cc1ccc(O)cc1)NC(=O)[C@H](CC1CC1)NC(=O)[C@H](CCCNC(=N)N)NC(=O)c1ccc(CN)cc1)C(=O)N[C@@H](CC(N)=O)C(=O)N[C@@H](CC(C)C)C(=O)N[C@H](C(=O)N[C@H](C(=O)N[C@@H](CCCNC(=N)N)C(=O)N[C@@H](CCC(N)=O)C(=O)N[C@@H](CCCNC(=N)N)C(=O)N[C@@H](Cc1ccc(O)cc1)C(N)=O)[C@@H](C)O)[C@@H](C)CC, name prints Ile28,32; also called compound No. 48) [4-Aminomethylbenzoyl-[Ala(cPr)26, Ile28,32]-PYY(25-36)] | 8.1 | 4.1
10 | [4Amb]RA[Phe(4-NH2)]INLITRQRY-NH2 (N-terminus assumed; SMILES CC[C@H](C)[C@H](NC(=O)[C@H](Cc1ccc(N)cc1)NC(=O)[C@H](C)NC(=O)[C@H](CCCNC(=N)N)NC(=O)c1ccc(CN)cc1)C(=O)N[C@@H](CC(N)=O)C(=O)N[C@@H](CC(C)C)C(=O)N[C@H](C(=O)N[C@H](C(=O)N[C@@H](CCCNC(=N)N)C(=O)N[C@@H](CCC(N)=O)C(=O)N[C@@H](CCCNC(=N)N)C(=O)N[C@@H](Cc1ccc(O)cc1)C(N)=O)[C@@H](C)O)[C@@H](C)CC, also called compound No. 52) [4-Aminomethylbenzoyl-[Ala26, Phe(4NH2)27, Ile28,31]-PYY(25-36)] | 11 | 5.7
11 | [2Abz]RH[Cha]INWITRQR[Cha]-NH2 (N-terminus assumed; SMILES CC[C@H](C)[C@H](NC(=O)[C@H](CC1CCCCC1)NC(=O)[C@H](Cc1c[nH]cn1)NC(=O)[C@H](CCCNC(=N)N)NC(=O)c1ccccc1N)C(=O)N[C@@H](CC(N)=O)C(=O)N[C@@H](Cc1c[nH]c2ccccc12)C(=O)N[C@H](C(=O)N[C@H](C(=O)N[C@@H](CCCNC(=N)N)C(=O)N[C@@H](CCC(N)=O)C(=O)N[C@@H](CCCNC(=N)N)C(=O)N[C@@H](CC1CCCCC1)C(N)=O)[C@@H](C)O)[C@@H](C)CC, also called compound No. 68) [[Abz(2)24, Cha27,36, Ile28,31, Trp30]-PYY(24-36)] | 19 | 15
12 | [4Amb]RAYIN[1Nal]ITRQRY-NH2 (N-terminus assumed; SMILES CC[C@H](C)[C@H](NC(=O)[C@H](Cc1ccc(O)cc1)NC(=O)[C@H](C)NC(=O)[C@H](CCCNC(=N)N)NC(=O)c1ccc(CN)cc1)C(=O)N[C@@H](CC(N)=O)C(=O)N[C@@H](Cc1cccc2ccccc12)C(=O)N[C@H](C(=O)N[C@H](C(=O)N[C@@H](CCCNC(=N)N)C(=O)N[C@@H](CCC(N)=O)C(=O)N[C@@H](CCCNC(=N)N)C(=O)N[C@@H](Cc1ccc(O)cc1)C(N)=O)[C@@H](C)O)[C@@H](C)CC, also called compound No. 55) [4-Aminomethylbenzoyl-[Ala26, Ile28,31, Nal(1)30]-PYY(25-36)] | 3.4 | 3
13 | [4Amb]KAYINLITRQRY-NH2 (N-terminus assumed; SMILES CC[C@H](C)[C@H](NC(=O)[C@H](Cc1ccc(O)cc1)NC(=O)[C@H](C)NC(=O)[C@H](CCCCN)NC(=O)c1ccc(CN)cc1)C(=O)N[C@@H](CC(N)=O)C(=O)N[C@@H](CC(C)C)C(=O)N[C@H](C(=O)N[C@H](C(=O)N[C@@H](CCCNC(=N)N)C(=O)N[C@@H](CCC(N)=O)C(=O)N[C@@H](CCCNC(=N)N)C(=O)N[C@@H](Cc1ccc(O)cc1)C(N)=O)[C@@H](C)O)[C@@H](C)CC, also called compound No. 49) [4-Aminomethylbenzoyl-[Lys25, Ala26, Ile28,31]-PYY(25-36)] | 34 | 24
14 | [4Amb]RAYIN[2Nal]ITRQRY-NH2 (N-terminus assumed; SMILES CC[C@H](C)[C@H](NC(=O)[C@H](Cc1ccc(O)cc1)NC(=O)[C@H](C)NC(=O)[C@H](CCCNC(=N)N)NC(=O)c1ccc(CN)cc1)C(=O)N[C@@H](CC(N)=O)C(=O)N[C@@H](Cc1ccc2ccccc2c1)C(=O)N[C@H](C(=O)N[C@H](C(=O)N[C@@H](CCCNC(=N)N)C(=O)N[C@@H](CCC(N)=O)C(=O)N[C@@H](CCCNC(=N)N)C(=O)N[C@@H](Cc1ccc(O)cc1)C(N)=O)[C@@H](C)O)[C@@H](C)CC, also called compound No. 56) [4-Aminomethylbenzoyl-[Ala26, Ile28,31, Nal(2)30]-PYY(25-36)] | 4.1 | 2.4
15 | Bz-RH[Cha]INLRTRQR[Cha]-NH2 (SMILES CC[C@H](C)[C@H](NC(=O)[C@H](CC1CCCCC1)NC(=O)[C@H](Cc1c[nH]cn1)NC(=O)[C@H](CCCNC(=N)N)NC(=O)c1ccccc1)C(=O)N[C@@H](CC(N)=O)C(=O)N[C@@H](CC(C)C)C(=O)N[C@@H](CCCNC(=N)N)C(=O)N[C@H](C(=O)N[C@@H](CCCNC(=N)N)C(=O)N[C@@H](CCC(N)=O)C(=O)N[C@@H](CCCNC(=N)N)C(=O)N[C@@H](CC1CCCCC1)C(N)=O)[C@@H](C)O, also called compound No. 65) [Benzoyl-[Cha27,36, Ile28, Arg31]-PYY(25-36)] | 15 | 16
